Source: the DeepSol protein solubility set

Assay: soluble on expression in E. coli; label from the status in PepcDB or PDB records
In the case of “MGSDKIHHHHHHMAFIAGEIAAVLDLPEVLRRRLFVAALLHDVGALSPEEKMDLYASKVEECDTHCIRGARLLHQVDGFGEEGRVLRLHHATLRDGSLADVDEDTARLAQIVHLSDLVDRALDRGRYVLHQADTMCDMARDLARCDFEVSIVRAFLEVARREDFWLQMVLPTLGQHLEAISPCRGEMLDACGVEVHAGLVQGMVDFRSSFTAAHSAGVAEAADALGGYCDLSPERRVVLRIAGLLHDLGKMAVPTSILEKPSGLTKAEFAFMRQHTFHTYRLLRGVDGLGGMAAWAAYHHEKLDGSGYPFHLEGRALDPQARIIGVADIFTAMAEDRPYRKGQGREGVLRVLRDECTTGRVDGELVETVAESYPDMVGRVLDAQHAARSRFSDVLQPAGEKGAKADQST”, the “soluble on expression in E. coli” value is reported as “not soluble”.
For “GSPNSTAEPTVAARPQQIDALRTLIRLGSLHTPMVVRTAATLRLVDHILAGARTVKALAARTDTRPEALLRLIRHLVAIGLLEEDAPGEFVPTEVGELLADDHPAAQRAWHDLTQAVARADISFTRLPDAIRTGRPTYESIYGKPFYEDLAGRPDLRASFDSLLACDQDVAFDAPAAAYDWTNVRHVLDVGGGKGGFAAAIARRAPHVSATVLEMAGTVDTARSYLKDEGLSDRVDVVEGDFFEPLPRKADAIILSFVLLNWPDHDAVRILTRCAEALEPGGRILIHERDDLHENSFNEQFTELDLRMLVFLGGALRTREKWDGLAASAGLVVEEVRQLPSPTIPYDLSLLVLAPAATGA”, the “soluble on expression in E. coli” value was “soluble”.
For “MSLKALDEPPYLTVGTDVSAKYRGAFCEAKIKTAKRLVKVKVTFRHDSSTVEVQDDHIKGPMKVGAIVEVKNLDGAYQEAVINKLTDASWYTVVFDDGDEKTLRRSSLCLKGERHFAESETLDQLPLTNPEHFGTPVIGKKTNRGRRSNHIPEEESSSSSSDEDEDDRKQIDELLGKVVCVDYISLDKKKALWFPALVVCPDCSDEIAVKKDNIMVRSFKDGKFTSVPRKDVHEITSDTAPKPDAVLKQAFEQALEFHKSRTIPANWKTELKEDSSSSEAEEEEEEEDDEKEKEDNSSEEEEEIEPFPEERENFLQQLYKFMEDRGTPINKRPVLGYRNLNLFKLFRLVHKLGGFDNIESGAVWKQVYQDLGIPVLNSAAGYNVKCAYKKYLYGFEEYCRSANIEFQMALPEKVVNKQCKECENVKEIKVKEENETEIKEIKMEEERNIIPREGHHHHHH”, the “soluble on expression in E. coli” value was “soluble”.
In the case of “MSKKFNGKVCLVTGAGGNIGLATALRLAEEGTAIALLDMNREALEKAEASVREKGVEARSYVCDVTSEEAVIGTVDSVVRDFGKIDFLFNNAGYQGAFAPVQDYPSDDFARVLTINVTGAFHVLKAVSRQMITQNYGRIVNTASMAGVKGPPNMAAYGTSKGAIIALTETAALDLAPYNIRVNAISPGYMGPGFMWERQVELQAKVGSQYFSTDPKVVAQQMIGSVPMRRYGDINEIPGVVAFLLGDDSSFMTGVNLPIAGG”, the “soluble on expression in E. coli” value is reported as “soluble”.
For “MRYSLKQLAVFDAVADCGSVSQAADKLALTQSATSMSLAQLEKMLGRPLFERQGKQMALTHWGMWLRPKAKRLLQDAQQIEMGFYDQHLLSGEIRLGASQTPAEHLVPDLISIIDSDFPEIRISLGVKSTKGVIEGVLDYKYDLGIIEGRCDDNRIYQEVWCRDHLTIVASAHHPFAKRESVSLAQLEQAKWVLREQGAGTRNIFDSVIHPLIPDLDVWREYEHVPVLRTLVANGPYLTCLPYLDVERFIESGLLVALNVPELNMERTLSFIWRADMEENPLAECIKREGLRMMKGKPSIL”, the “soluble on expression in E. coli” value was “not soluble”.
With “MMEVLTGPERRRRWSVEEKLALVRESFEPGKTVSMVARQHGVNPNQVFHWRKLYQDGSLSAVSAGEEVVPASELAEALKLVRVLQRMLGKKTMENEILREAVEYGRAKKWIARSPSLPGDDQLEHHHHHH” the “soluble on expression in E. coli” value was “not soluble”.
With “MESKEERALNNLIVENVNQENDEKDEKEQVANKGEPLALPLNVSEYCVPRGNRRRFRVRQPILQYRWDIMHRLGEPQARMREENMERIGEEVRQLMEKLREKQLSHSLRAVSTDPPHHDHHDEFCLMP” the “soluble on expression in E. coli” value was “soluble”.
For “MNKTNQIVDLLTNKQNNSIQRRDNLVFVKNEQEFKDILDSTISLSNVYDPLLGNGCEQEKIKELTILNNSVDISKIEEYTKTLESKVDDLYNNVSNQLIQDYQKNENTSANNIIMKNEELLNSHLKEVEKICEQLIDEWKIEILGEVNFKFQQQLIEIDQKQEHKLKVKSLINEDSFLTKRQVKNKNKILTEFEKHRSQITQNYLNKRSDILKKEYDELLKDDKLFELSSGDNWNNFKKITLFISNEIGIINDLEDLLNHQELIRTRNYTKRAILNQHHINGHFKDEKKYLKSLYDLRVKFMYGLGSEIVILKFLIEHYKKLNSLRLRLETLNHPLSNYAVYFDILNRIEKQTQLLAKIETLKYDNYDFNADVILDDLESNITKINEIKHNSNVLNKTKVIKTIIEPKYELELISKDDKVDGVKVYVNDQEILSKLEHHHHHH”, the “soluble on expression in E. coli” value was “not soluble”.
With “MGSDKIHHHHHHQTKAEKNGWRLGMQSYSFHLFPLTEALDKTQELGLKYIEIYPGHKLGGKWGDKVFDFNLDAQTQKEIKELAASKGIKIVGTGVYVAEKSSDWEKMFKFAKAMDLEFITCEPALSDWDLVEKLSKQYNIKISVHNHPQPSDYWKPENLLKAISGRSQSLGSCSDVGHWRREGLNQIDCLKQLKGRIISLHFKDIAPKKAGENEQHDVIWGTGILDVKGMLKELKSQNFKGVFSIEYEYNWENSVPDIKECIQYFNKTANEIL” the “soluble on expression in E. coli” value was “not soluble”.
For “MACVDISPLSYESVKSVVKYLSLKKREQINLSIPAYHKTAKLAPFKLENVGLSDLYIEVNDRTWTLSETDIIGCTLVLYRSNGYNFQHIISITPEVAFQKLISEYLRNGTRIKKFHLYALPSLLKNVELHVSELKIDGCDYETFAKFRKFIDHNQKILKEIGFVVRQNTLWMFDEQLVKNSKEIYLQFPYYNPVPLDDMLLRLKNNHVHIIYLGFPIEKLQELAMNWIDTKKPIGTSLFLVVEHYTYVIDVFEHLTKYSKAIPSRLTDLGTSFFSHCVTMHIDESSELVLFGGPMVIEWKPFKWTLRMTIMKRGSTISK”, the “soluble on expression in E. coli” value was “not soluble”.
For “VTALDWRSALTADEQRSVRALVTATTAVDGVAPVGEQVLRELGQQRTEHLLVAGSRPGGPIIGYLNLSPPRGAGGAMAELVVHPQSRRRGIGTAMARAALAKTAGRNQFWAHGTLDPARATASALGLVGVRELIQMRRPLRDIPEPTIPDGVVIRTYAGTSDDAELLRVNNAAFAGHPEQGGWTAVQLAERRGEAWFDPDGLILAFGDSPRERPGRLLGFHWTKVHPDHPGLGEVYVLGVDPAAQRRGLGQMLTSIGIVSLARRLGGRKTLDPAVEPAVLLYVESDNVAAVRTYQSLGFTTYSVDTAYALAGTDN”, the “soluble on expression in E. coli” value was “not soluble”.
With “MSLAYTIKKVEKETKISAHTLRFWAKKGLFPFVQKDENSVKYFSKSDIEWVKWIEWLRISGMPIEQVKHYIKLCSLGIKTAKERQEMLKQTKKKLQNQIKTLKESEKVLSKKIKIYEEMLANEVDGFNPESKDYQPCDKLHKFKGEGHHHHHH” the “soluble on expression in E. coli” value was “not soluble”.
With “HRYGDEIDALVEAFNRMRESLAVAYQQQQGMLQAVRESEALLRAIARRIPNGGVWVVDTDGRYIMFEGSLVESLGLSGQEALGRMPGDLFGEPLADRLVGCYRLALAGGTLSEEIEYRERVLWIQFAPLEDEHGAVMAAVALGID” the “soluble on expression in E. coli” value was “not soluble”.
With “MAHHHHHHMFTLCKGYSEDEDEEEVKDIIDNLKEQKKSFEEKINYYKLKGNIERSHITIYTNLGEFQVELYWYHSPKTCLNFYTLCTMGYYDNTIFHRVIPDYIIQGGDPTGTGKGGKSIYGEYFEDEINTELKHTGAGILSMSNNGPNTNGSQFFITLCPLPHLDGKHTIFARVSKNMTCIENIASVQTTATNKPIFDVKILRTSTAVNVD” the “soluble on expression in E. coli” value was “soluble”.
For “MLDRIRGQLEQLSSAERKVADLVLEQPYTVIQAAVAEIARNAGVSQPTVIRFCRTVGCSGLPDFKLKLAGSLVTGVPYVHSSVRPEDPTSEIVAKVFDNTVSALLKCRNDVN”, the “soluble on expression in E. coli” value was “not soluble”.
With “MNASLSSDIAPYIPTLIQQLPIIEEIKTHLPQVLPDYSADEIHATAIASVGMYLADIDYGIRQAIAPEVTPLELRQKLSAYKIELFKRIYNIQFLQPPSTPIGGLELMQQAFKTYKRLLTTLAKAYNLRLPKGILLEHHHHHH” the “soluble on expression in E. coli” value was “not soluble”.
With “MGSDKIHHHHHHMNELTKQLQEIMVPKAALIAYEYQEGHYASGSHYLELRPINKKGRMEAGIPVTYEFMDSLVESYSDGNRRIPHGWLPPNMLWCDTRRGHESYVWYNPPGKRRMFFKNDLNIGDGMFHVPGVIYIIKNERMDIFAYKGKKPDGRTPLYLAPFFNVTGGNVCLGNSTLEKPESLDFHTLLEYWEKRFWLSEFSHLGGGKNPTRNNLVLVTERMREQPFDNDELQPINKRLKDILP” the “soluble on expression in E. coli” value was “not soluble”.
With “MHHHHHHMSWNHQSVEIAVRRTTVPSPNLPPGFDFTDPAIYAERLPVAEFAELRSAAPIWWNGQDPGKGGGFHDGGFWAITKLNDVKEISRHSDVFSSYENGVIPRFKNDIAREDIEVQRFVMLNMDAPHHTRLRKIISRGFTPRAVGRLHDELQERAQKIAAEAAAAGSGDFVEQVSCELPLQAIAGLLGVPQEDRGKLFHWSNEMTGNEDPEYAHIDPKASSAELIGYAMKMAEEKAKNPADDIVTQLIQADIDGEKLSDDEFGFFVVMLAVAGNETTRNSITQGMMAFAEHPDQWELYKKVRPETAADEIVRWATPVTAFQRTALRDYELSGVQIKKGQRVVMFYRSANFDEEVFQDPFTFNILRNPNPHVGFGGTGAHYCIGANLARMTINLIFNAVADHMPDLKPISAPERLRSGWLNGIKHWQVDYTGRCPVAH” the “soluble on expression in E. coli” value was “soluble”.
With “MLDDCEASGFINDKRYAELLVRSNIARGHGPIRIRQAIAQKGLTKDCIEAALIATDYDWFELAKAKAKAKAIKKYGVPKVTEVKGSQSRELIAKEKAKRVRFLLSQGFSYEQVIYALDYDPLEDNDD” the “soluble on expression in E. coli” value was “not soluble”.
In the case of “LKMTKVMVSEAGASVYSASELAAKEFPDLDVSIRGAVSIARRLQDPLAELVKIDPKSIGVGQYQHDVSQLKLARGLDAVVEDCVNAVGVDVNTASVALLARISGLNTTLAQNIVAHRDENGAFKTRAALKKVSRLGEKTFEQAAGFLRVMTGDNPLDSSAVHPEAYPLVQRIAAETDRDIRSLIGDASFLKRLDPKKFTDETF”, the “soluble on expression in E. coli” value is reported as “not soluble”.
For “MAAIKINKLLTIESNSSHTLLESMEQAGLEPEYNCRDGHCGACRCQLISGEVEYVGFAMAYTQGNEILPCICRAKTALEIEQVTYQLKAKRA”, the “soluble on expression in E. coli” value was “not soluble”.
With “GLFQFLRIVMRPSDQLLGLDEKGTIRTIDETGKASPIPGMVIYRFNSPLTYFNAPYFKRRLLEHAEQNKDVSCVVVDAVSSFTHLDLSVMATLADIHEVLKKRGIRLVLAGRKRRLRQWCELTGISTSEGGILLRADMYLAIKLSGSYLSAVGEGIVPTVQKEPDLEQPPKPIPEVA” the “soluble on expression in E. coli” value was “not soluble”.
With “MENPMNTDHTKRNLFELYAELIHQQEKWEGLIKAFLSDELRKLDVEHGSKSQLTMTEIHVLSCVGDNEPINVTSIAEKMNTTKATVSRISTKLLGAGFLHRTQLSDNKKEVYFRLTPAGKKLHSLHKYYHQKAEQRFLSFFDRYTEEEILFAERLFRDLVTKWYPSSEEIEGGLPSIFK” the “soluble on expression in E. coli” value was “not soluble”.
In the case of “MMSVEHSANSQKKVIVGMSGGVDSSVSAYLLKQQGYQVEGLFMKNWEEDDNEEYCTAAEDLADAQAVCDKLGIPLHTINFAAEYWDNVFEYFLAEYKAGRTPNPDILCNKEIKFKAFLEFADEVLDADYIAMGHYVRRTFPQNGEKPQMLRGLDGNKDQSYFLYTLSHEQVARTLFPVGELEKPEVRRIAEEQGLITAKKKDSTGICFIGERKFTDFLSRYLPAQPGKIETPEGKVIGEHQGLMYHTLGQRKGLHIGGMKESSEQPWYVADKDLKRNVLIAVQGADHPLLKSHGLVAAQLHWVDRTPITEPVRCSVKTRYRQSDIACTIIPLSDDRIKVMFDEPQVAVTPGQSAVFYQGEICLGGGIIEERI”, the “soluble on expression in E. coli” value is reported as “not soluble”.
